Non-standard residues stand in square brackets, D forms with d. No end group written: not given here. fluorescein = fluorescein-6-aminohexanoyl label; pY = N[C@@H](Cc1ccc(OP(=O)(O)O)cc1)C(=O)O; Ahx = NCCCCCC(=O)O
T1: C1-Ten SH2 domain (C1-Ten/Tensin2) (Homo sapiens, UniProt Q63HR2, K1142Q/K1155Q/K1157Q)
T1 sequence (Q63HR2 1120-1253 K1142Q/K1155Q/K1157Q): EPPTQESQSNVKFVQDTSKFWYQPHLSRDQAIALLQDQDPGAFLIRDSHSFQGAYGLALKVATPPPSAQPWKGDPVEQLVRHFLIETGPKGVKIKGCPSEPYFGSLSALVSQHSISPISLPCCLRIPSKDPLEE

T2: C1-Ten SH2 domain (C1-Ten/Tensin2) (Homo sapiens, UniProt Q63HR2)
T2 sequence (Q63HR2 1120-1253): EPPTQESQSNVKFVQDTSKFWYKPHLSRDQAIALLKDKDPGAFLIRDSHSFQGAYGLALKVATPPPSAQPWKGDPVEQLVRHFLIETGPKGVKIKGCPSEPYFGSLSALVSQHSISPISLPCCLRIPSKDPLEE

T3: C1-Ten/Tensin2 SH2 domain K1142Q/K1155Q/K1157Q (UniProt Q63HR2 1120-1253, K1142Q | K1155Q | K1157Q)
T3 sequence (looked up): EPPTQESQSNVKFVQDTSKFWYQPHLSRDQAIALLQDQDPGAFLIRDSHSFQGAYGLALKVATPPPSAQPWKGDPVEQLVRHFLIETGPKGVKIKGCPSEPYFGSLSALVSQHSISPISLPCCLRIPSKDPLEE

T4: C1-Ten/Tensin2 SH2 domain R1165A (UniProt Q63HR2 1120-1253, R1165A)
T4 sequence (looked up): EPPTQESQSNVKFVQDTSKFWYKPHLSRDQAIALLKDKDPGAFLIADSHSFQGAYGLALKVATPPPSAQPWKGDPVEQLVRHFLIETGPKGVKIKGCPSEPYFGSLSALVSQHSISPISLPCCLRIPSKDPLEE

T5: C1-Ten/Tensin2 SH2 domain, wild type (UniProt Q63HR2 1120-1253)
T5 sequence (looked up): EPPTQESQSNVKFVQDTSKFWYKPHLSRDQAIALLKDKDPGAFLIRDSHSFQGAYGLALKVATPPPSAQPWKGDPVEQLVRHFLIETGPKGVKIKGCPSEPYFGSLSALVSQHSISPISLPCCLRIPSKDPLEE


Key:
[1] = target: T1, C1-Ten SH2 domain (C1-Ten/Tensin2); experiment: equilibrium SPR, L1 chip with lipid vesicles; format: binding
[2] = target: T2, C1-Ten SH2 domain (C1-Ten/Tensin2); experiment: equilibrium SPR, L1 chip with lipid vesicles; format: binding
[3] = target: T3, C1-Ten/Tensin2 SH2 domain …; experiment: fluorescence polarisation
[4] = target: T4, C1-Ten/Tensin2 SH2 domain R1165A; experiment: fluorescence polarisation
[5] = target: T5, C1-Ten/Tensin2 SH2 domain, wild type; experiment: fluorescence polarisation

Row | Molecule | Kd [1] [nM] | Kd [2] [nM] | Kd [3] [nM] | Kd [4] [nM] | Kd [5] [nM]
1 | CCCCCCCCCCCCCCCC(=O)OC[C@H](COP(=O)(O)O[C@H]1[C@H](O)[C@@H](OP(=O)(O)O)[C@H](OP(=O)(O)O)[C@@H](OP(=O)(O)O)[C@H]1O)OC(=O)CCCCCCCCCCCCCCC [PtdIns(3,4,5)P3] | 1260 ± 128 | 260 ± 40 |  |  | 
2 | {fluorescein-Ahx}-NE[pY]DNV [F-Ahx-NEpYDNV, fluorescein-6-aminohexanoyl-labeled pY-containing peptide] |  |  | 3600 ± 1400 | 90900 ± 11400 | 2500 ± 1300
